Measurements as given in PMC6889141, “In vivo methylation of OLA1 revealed by activity-based target profiling of NTMT1† †Electronic supplementary information (ESI) available. See DOI: 10.1039/c9sc02550b” (Chemical Science, 2019).

Molecular target: T1, N-Terminal methyltransferase 1 (NTMT1), wild type (UniProt Q9BV86 1-223)
T1 construct: N-terminal methyltransferase 1 (NTMT1), wild type; they probably stand in the ESI; also called wt NTMT1
T1 sequence (looked up): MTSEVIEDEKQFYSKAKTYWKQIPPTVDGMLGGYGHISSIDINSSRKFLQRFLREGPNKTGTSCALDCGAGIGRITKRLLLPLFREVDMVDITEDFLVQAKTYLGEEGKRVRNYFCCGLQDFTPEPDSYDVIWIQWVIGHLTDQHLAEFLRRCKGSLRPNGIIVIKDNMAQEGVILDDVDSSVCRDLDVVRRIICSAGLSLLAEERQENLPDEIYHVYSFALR
Assay: ITC; affinity of RCC1 peptide with wt NTMT1; conditions, and which of the two was titrated, not told in the text shown
Settings: both partners purified

- Kd: 1220 ± 20 nM
B1: RCC1p, peptide of the first 10 N-terminal residues of RCC1 after initial methionine removal (peptide, UniProt P18754 2-11, looked up)
peptide: SPKRIAKRRS
notes: RCC1, the first 10 N-terminal residues after removal of the initial methionine (residues 2-11 counted with the methionine as 1); also called RCC1 peptide; source: synthetic peptide
